Measurements: PMC8198134, “Structural Basis for the Diminished Ligand Binding and Catalytic Ability of Human Fetal-Specific CYP3A7” (International Journal of Molecular Sciences, 2021)

Substrate: O=c1cc(C(F)(F)F)c2ccc(OCc3ccccc3)cc2o1
Assay: purified protein
Assay type: biochemical, Homo sapiens
Settings: heme

B1: CYP3A7mut (Homo sapiens; C77G/K244E/K421A/K422A/K424A/R69G) (protein)
chain: YLYGTRTHGLFKKLGIPGPTPLPFLGNALSFRKGYWTFDMECYKKYGKVWGIYDGQQPMLAITDPDMIKTVLVKECYSVFTNRRPFGPVGFMKNAISIAEDEEWKRIRSLLSPTFTSGKLKEMVPIIAQYGDVLVRNLRREAETGKPVTLKHVFGAYSMDVITSTSFGVSIDSLNNPQDPFVENTKKLLRFNPLDPFVLSIKVFPFLTPILEALNITVFPREVISFLTKSVKQIKEGRLKETQKHRVDFLQLMIDSQNSKDSETHKALSDLELMAQSIIFIFAGYETTSSVLSFIIYELATHPDVQQKVQKEIDTVLPNKAPPTYDTVLQLEYLDMVVNETLRLFPVAMRLERVCKKDVEINGMFIPKGVVVMIPSYVLHHDPKYWTEPEKFLPERFSAANADNIDPYIYTPFGSGPRNCIGMRFALVNMKLALVRVLQNFSFKPCKETQIPLKLRFGGLLLTEKPIVLKAESRDETVSGA
notes: Δ3-22 (lacking the membrane tether, residues 3-22), C-terminal 4-histidine tag
Km: 11 ± 1 µM | kcat: 0.000567 ± 8.33e-05 s⁻¹ | kcat/Km: 51.7 M⁻¹ s⁻¹
